In data set [1] the target is T1, PdbSCL1 (Populus davidiana x P. bolleana …, UniProt A0AAJ6V7V0 1-473).
T1 sequence: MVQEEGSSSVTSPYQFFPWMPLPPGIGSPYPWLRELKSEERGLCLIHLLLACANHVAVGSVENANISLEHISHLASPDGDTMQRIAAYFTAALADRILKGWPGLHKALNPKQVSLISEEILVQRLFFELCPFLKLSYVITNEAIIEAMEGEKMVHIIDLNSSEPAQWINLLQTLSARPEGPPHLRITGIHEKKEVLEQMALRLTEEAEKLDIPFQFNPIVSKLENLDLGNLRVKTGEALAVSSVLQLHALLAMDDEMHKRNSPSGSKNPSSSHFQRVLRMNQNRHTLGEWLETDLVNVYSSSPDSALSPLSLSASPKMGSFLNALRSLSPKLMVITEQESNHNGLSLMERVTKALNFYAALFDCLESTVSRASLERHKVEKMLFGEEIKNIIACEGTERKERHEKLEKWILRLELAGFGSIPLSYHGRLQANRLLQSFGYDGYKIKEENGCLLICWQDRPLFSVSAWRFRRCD
Put plainly: competition; EMSA, unlabelled mutant competitor; Chemiluminescent EMSA kit (Beyotime), PAGE; buffer, salt, pH and temperature not stated. To be noted: protein: recombinant; tags: MBP (pMALc5X); label: unlabelled; blunt. Background: Mobility shift assays separate free from complexed probe on a gel.

The target in data set [2] is T1, PdbSCL1. Put plainly: EMSA; Chemiluminescent EMSA kit (Beyotime), PAGE; buffer, salt, pH and temperature not stated. To be noted: protein: recombinant; tags: MBP (pMALc5X); label: 3' biotin; blunt.

B1: NFY mutant competitor (CCAAT to TTTTT) (dsDNA)
DNA 1: TTTTTTTTTTTTTTTC
DNA 2: GAAAAAAAAAAAAAAA
Turning to B1, the binding result in data set [1] is on record as “no binding”.

B2: NFY probe (3x CCAAT) (dsDNA)
DNA 1: CCAATCCAATCCAATC
DNA 2: GATTGGATTGGATTGG
Regarding B2, in data set [2], the binding result is given as “binds”.

B3: ABRE probe (3x CACGTG) (dsDNA)
DNA 1: CACGTGCACGTGCACGTG
DNA 2: CACGTGCACGTGCACGTG
As to B3, in data set [2], the binding result is “binds”.

B4: PCF probe (3x TGGGCC) (dsDNA)
DNA 1: TGGGCCTGGGCCTGGGCC
DNA 2: GGCCCAGGCCCAGGCCCA
With B4, in data set [2], the binding result is on record as “binds”.

Values taken from paper PMC12392933, “The SCARECROW‐LIKE transcription factor from Populus davidiana × P. bolleana simultaneously improved drought tolerance and plant growth through acetylation‐dependent mechanisms”.
